Results as given in publication PMC9001700 (Communications Biology, 2022).

Target: SARS-CoV-2 S6P (SARS-CoV-2, Wuhan-Hu-1 (assumed), UniProt P0DTC2, stabilised, biotinylated (site not stated))
Assay: BLI
Details: both partners purified

B1: B6 mAb (antibody, V domains shown)
VH: EVQLQQSGPVLVKPGASVRMSCKASGYTITDYYLNWVKQSHGKSLEWLGVLNPYSGGSLYSQTFKGKATLTVDRSSSTAYLELNSLTSEDSAVYYCARQLGRGNGLDYWGQGTSVTVSS
VL: NIMMTQSPSSLAVSAGEKVTMSCKSSQSVLHSSDQKNYLAWYQQKPGQSPKLLIYWASTRESGVPDRFTGSGSGTDFTLTISSVQAEDLAVYFCHQYLSSYTFGGGTKLEIK
notes: source: 293 cells, purified using protein A resin
binding result: binds

B2: CV3-25 Fab (Fab, V domains shown)
VH: QVQLVESGAEVKKPGESLKISCKGSGYTFTRYWIGWVRQMPGKGLEWMGIIYPGDSDTRYSPSFQGHVTISADKSISTAYLQWNSLKASDTAMYYCARLPQYCSNGVCQRWFDPWGQGTLVTVSS
VL: EIVLTQSPSSVSASVGDRVTITCRASQGISSWLAWYQQKPGKAPKLLIYAASSLQSGVPSRFSGSGSGTDFTLTISSLQPEDFATYYCQQGNSFPYTFGQGTNLEIK
notes: also called monovalent Fab
Kd: ~0.6 nM
